Measured values as given in patent publication US20240287172A1 (SCIRHOM, published 2024).

Columns and labels:
hiR2-FL-W526A-T7 = molecular target: T1, hiR2-FL-W526A-T7 (human, UniProt Q6PJF5 1-856); experiment: FACS on MEF-DKO cells expressing the variant, 3 µg/ml antibody
T1 sequence: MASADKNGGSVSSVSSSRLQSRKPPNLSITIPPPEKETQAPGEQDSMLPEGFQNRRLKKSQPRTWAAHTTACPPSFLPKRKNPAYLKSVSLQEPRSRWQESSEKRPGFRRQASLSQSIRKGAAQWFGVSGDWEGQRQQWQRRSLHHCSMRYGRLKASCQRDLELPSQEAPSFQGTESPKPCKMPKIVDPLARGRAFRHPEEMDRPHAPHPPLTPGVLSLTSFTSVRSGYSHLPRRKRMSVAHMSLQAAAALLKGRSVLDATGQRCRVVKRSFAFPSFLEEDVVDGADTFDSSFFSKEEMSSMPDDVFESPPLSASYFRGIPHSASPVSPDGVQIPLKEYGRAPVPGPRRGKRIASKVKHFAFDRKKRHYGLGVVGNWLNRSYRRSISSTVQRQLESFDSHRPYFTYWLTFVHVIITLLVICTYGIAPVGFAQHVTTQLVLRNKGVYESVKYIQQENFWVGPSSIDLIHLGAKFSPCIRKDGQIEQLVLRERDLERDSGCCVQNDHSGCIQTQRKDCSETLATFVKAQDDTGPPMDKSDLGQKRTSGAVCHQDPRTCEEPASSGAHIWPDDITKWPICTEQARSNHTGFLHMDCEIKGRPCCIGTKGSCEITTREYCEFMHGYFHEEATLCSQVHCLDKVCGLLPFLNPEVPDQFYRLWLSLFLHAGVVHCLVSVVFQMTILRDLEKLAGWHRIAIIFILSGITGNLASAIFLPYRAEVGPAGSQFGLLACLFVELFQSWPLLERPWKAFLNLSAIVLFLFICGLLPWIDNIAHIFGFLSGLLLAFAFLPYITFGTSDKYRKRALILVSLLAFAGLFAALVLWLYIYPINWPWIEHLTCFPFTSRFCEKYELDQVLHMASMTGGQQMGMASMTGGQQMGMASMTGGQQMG
Protocol: (§1) To pellet cells and remove supernatants, the plates were centrifuged at 1,500 rpm and 4° C. for 3 minutes. For primary staining, cells were resuspended in 100 μl per well of either FACS buffer alone (controls) or the purified antibodies 3, 5, 16, 22, 34, 42, 43, 44, 48, and 50 of the invention at 3 μg/ml in FACS buffer and incubated on ice for 1 hour. Afterwards, plates were centrifuged at 1,500 rpm and 4° C. for 3 minutes and washed twice with 200 μl per well of FACS buffer. For secondary staining, cells were spun down and resuspended in 100 μl per well of PE-conjugated goat anti-mouse IgG F(ab′)2 detection fragment (Dianova, Germany) diluted 1:100 in FACS buffer. Protected from light, the cell suspensions were incubated on ice for 1 hour. Plates were then centrifuged at 1,500 rpm and 4° C. for 3 minutes and washed three times with 200 μl per well of FACS buffer. Finally, cells were resuspended in 150 μl per well of FACS buffer and analyzed using a BD Accuri™ C6 Plus flow cytometer (Becton Dickinson, Germany).

hiR2-FL-D535A-T7 = molecular target: T2, hiR2-FL-D535A-T7 (human, UniProt Q6PJF5 1-856); experiment: as above
T2 sequence: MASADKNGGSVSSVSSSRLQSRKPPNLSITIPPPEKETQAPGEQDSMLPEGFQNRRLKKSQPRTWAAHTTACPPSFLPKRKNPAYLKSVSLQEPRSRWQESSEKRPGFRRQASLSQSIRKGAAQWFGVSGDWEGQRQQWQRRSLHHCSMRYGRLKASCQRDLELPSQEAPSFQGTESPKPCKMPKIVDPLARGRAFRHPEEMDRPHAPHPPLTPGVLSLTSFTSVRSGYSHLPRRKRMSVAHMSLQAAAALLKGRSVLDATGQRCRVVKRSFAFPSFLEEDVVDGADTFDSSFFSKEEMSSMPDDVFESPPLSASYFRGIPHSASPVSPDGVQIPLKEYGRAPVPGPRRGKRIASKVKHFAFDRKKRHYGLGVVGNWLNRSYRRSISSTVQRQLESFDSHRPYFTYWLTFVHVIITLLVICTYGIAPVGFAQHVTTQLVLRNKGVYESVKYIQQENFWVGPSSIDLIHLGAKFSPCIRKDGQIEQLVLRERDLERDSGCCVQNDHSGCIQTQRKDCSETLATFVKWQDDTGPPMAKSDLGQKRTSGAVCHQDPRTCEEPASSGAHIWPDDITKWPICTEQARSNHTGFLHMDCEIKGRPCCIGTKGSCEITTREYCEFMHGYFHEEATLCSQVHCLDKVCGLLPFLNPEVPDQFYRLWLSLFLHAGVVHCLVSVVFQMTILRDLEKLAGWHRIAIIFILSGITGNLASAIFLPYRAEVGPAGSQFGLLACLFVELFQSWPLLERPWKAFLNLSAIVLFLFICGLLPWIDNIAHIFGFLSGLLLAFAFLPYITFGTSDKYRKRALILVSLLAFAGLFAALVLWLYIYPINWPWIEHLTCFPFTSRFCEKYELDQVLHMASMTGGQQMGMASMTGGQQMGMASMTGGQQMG
Protocol: as §1

Binder | loss of binding vs wild type (hiR2-FL-W526A-T7) [%] | loss of binding vs wild type (hiR2-FL-D535A-T7) [%]
antibody 5 (antibody, V domains shown, mouse IgG, kappa light chain; also called clone #5; purified antibody 5) VH: QVTLKESGPGILQPSQTLSLTCSFSGFSLSTFGMGVGWIRQPSGKGLEWLAHIWWDDEKYYNSALKSRLTISKATSKNQAFLKIANVDTADTATYYCARISNYGSNYWYFNVWGTGTTVTVSS VL: QVVLTQSPALMSASPGEKVTMTCSAGSSVSCMYWYQQKPGSSPRVLIYDTSNLASGVPARFTGSGSGTSYSLTISRMEAEDAASYYCQQWNSYPLTFGAGTKLELK | ≥ 60 | ≥ 60
antibody 42 (antibody, V domains shown, mouse IgG, kappa light chain; also called clone #42; purified antibody 42) VH: QVTLKESGPGILQPSQTLSLTCSLSGFSLSTFGRGVGWIRQPSGKGLEWLAHIWWDDEKYYNPALKSRLTISKDTSKNQVFLRIANVDTADTATYYCARIQNYGSNYWYFDVWGTGTTVTVSS VL: LIVLTQSPAIMSASPGEKVTMTCGATSRISYMFWYQQKPGSSPRVLIYDTSNLASGVPVRFSGSGSGTSYSLTISRVEAEDVATYYCQQWNSYPLTFGAGTKLELK | ≥ 30 | ≥ 30
antibody 44 (antibody, V domains shown, mouse IgG, kappa light chain; also called clone #44; purified antibody 44) VH: QVTLKESGPGILQPSQTLSLTCSFSGFSLSTFGMGVGWIRQPSEKGLEWLAHIWWDDDKYYNPALKSRLTISKDTSKNQIFLKITNVDTAETATYYCSRIGNYGSNYWYFDVWGTGTTVTVSS VL: QIVLTQSPAVMSASPGEKVTMTCTASSSVYYMYWYQQTPGSSPRLLIYDTSNLASGVPVRFSGSGSGTSYSLTISRMEAEDAATYYCQQWNTYPLTFGAGTKLELK | ≥ 30 | ≥ 30
antibody 43 (antibody, V domains shown, mouse IgG, kappa light chain; also called clone #43; purified antibody 43) VH: QVALKESGPGILQPSQTLSLTCSFSGFSLSTFGMGVGWIRQSSGKGLEWLANIWWDDDKYYNPALKSRLTISKDASKNQAFLKIANVDTADTATYYCARIGNYGSNYWYFDVWGTGTTVTVSS VL: QIVLTQSPAIMSASPGERVTMTCSANSRISYMYWYQQKPGSSPRLLIYDTSNLASGVPVRFSGSGSGTSYSLTISRMEAEDAATYNCQQWSSYPLTFGAGTKLELK | ≥ 30 | 
antibody 22 (antibody, V domains shown, mouse IgG, kappa light chain; also called clone #22; purified antibody 22) VH: QVTLKESGPGILQPSQTLSLTCSFSGFSLSTFGMGVGWIRQPSGKGLEWLAHIWWDDEKYYNSALKSRLTISKATSKNQVFLKIANVDTADTATYYCARISNYGSNYWYFNVWGTGTTVTVSS VL: QVVLTQSPALMSASPGEKVTMTCSAGSSVSYMYWYQQKPGSSPRVLIYDTSNLASGVPARFTGSGSGTSYSLTISRMEAEDAATYYCQQWNSYPLTFGAGTKLELK | ≥ 30 | ≥ 30
antibody 48 (antibody, V domains shown, mouse IgG, kappa light chain; also called clone #48; purified antibody 48) VH: QVQLQQSGTELVRPGTSVKVSCKASGYAFTNYLIEWVKQRPGQGLEWIGVINPGSGFTKYNEKFKGKATLTADKSSSTVYMHLSSLTSEDSAVYFCARGLYRAMDYWGQGTSVTVSS VL: DIQMTQSPASQSASLGESVTITCLASQTIATWLAWYQQKPGKSPQLLIYGATTLADGVPSRFSGGGSGTKFSFKISSLQAEDFVSYYCQQLYSTPYTFGGGTKLEIK | ≥ 30 | 
antibody 50 (antibody, V domains shown, mouse IgG, kappa light chain; also called clone #50; purified antibody 50) VH: QVQLQQSGAELVRPGASVKVSCKASGYAFSNYLIEWVKQRPGQGLEWIGVINPGSGFTKYNEKFKGKATLTADKSSSTAYMQLSSLTSEDSAVYFCARGLYRAMDYWGQGTSVTVSS VL: DIQMTQSPASQSASLGESVTITCLASQTIGTWLAWYQQKPGKSPQLLIYAAASLADGVPSRFSGGGSGTKFSFKISSLQAEDFVNYYCQQIYSTPYTFGGGTKLEIK | ≥ 30 | 
antibody 34 (antibody, V domains shown, mouse IgG, kappa light chain; also called clone #34; purified antibody 34) VH: QVTLKESGPGILQPSQTLSLTCSFSGFSLSTFSLGVGWIRQSSGKGLEWLAHIWWDDEKYYNPALKSRLTISKDTSKNQVFLKIANVDAADTATYYCARAYYSKSYYALDYWGQGTSVTVSS VL: DIQMTQSPSSLSASLGERVSLTCRASQEISGYLSWLQQKPDGTIKRLIYAASTLDSGVPKRFSGSRSGSDYSLAISSLESEDFADYYCLQYANFPFTFGSGTKLEIK | ≥ 60 | ≥ 30
antibody 3 (antibody, V domains shown, mouse IgG, kappa light chain; also called clone #3; purified antibody 3) VH: QVTLKESGPGILQPSQTLSLTCSFSGFSLTTFAMGIGWVRQPSGKGLEWLAHIWWDGEKYNNPVLKSRLTISKDTSKNQVFLRIANVDTPDTATYYCARISSIYYIIDNWGQGTSVTVSS VL: DIVLTQSPATLSVTPGHSVSLSCRASQSISNNLHWYQKKSHESPRLLIKYVSQSISGIPSRFSGSGSGTDFTLSINSVETEDFGMYFCQQSYNWPLTFGAGTKLELK | ≥ 30 | ≥ 60
